Target: Wild type CXCL12 (CXCL12-WT) (UniProt P48061-2 22-89)
Test: ITC

Sequence of Wild type CXCL12 (CXCL12-WT) (P48061 22-89): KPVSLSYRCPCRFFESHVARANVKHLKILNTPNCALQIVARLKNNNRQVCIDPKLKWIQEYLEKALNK

Kd: 4 µM
stoichiometry N: ~0.5
B1: ACKR1^N-term, sixty-amino acid peptide corresponding to the extracellular N-terminus of ACKR1 (domain or fragment, UniProt Q16570 1-60, looked up)
chain: MGNALHRAELSPSTENSSQLDFEDVWNSSYGVNDSFPDGDYGANLEAAAPAHSANLLDDS

Reference: PMC9015690 (Science signaling, 2021)
